B1: TPR t1 (parent)
chain: GACCAAUCUGCCCUCAGAGCUCGAGAACAUCUUCGGAUGCAGAGGAGGCAGGCUUCGGUGGCGCGAUAGCGCCAACGUCCUCAACCUCCAAUGCAUCCCACCACAUGAUGAUGCCUGAAGAGCCUUGGUUUUUUG

In this data set the parent is B1. The data set is described as follows: polymerase ribozyme fitness, log enrichment relative to wild type (log ratio); higher = more active; in vitro selection for triplet polymerase activity. In outline:
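Mutant libraries of both subunits of a heterodimeric triplet polymerase ribozyme were PCR-built, transcribed, and selected once in triplicate, with frozen incubation at −7 °C and capture of gel-excised extended constructs on streptavidin beads before RT-PCR. Illumina sequencing of input and output libraries was filtered to genotypes with ≥10 input reads and ≥1 read per output. Fitness is the logarithm of genotype enrichment over wild-type enrichment, using inverse-variance-weighted replicate averages. The logarithm is base 2.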
Take GAACAAUCUGCCCUCAGAGCUCGAGAACAUCUUCGGAUGCAGAGGAGGCAGGCUUAGGUGGCGCGAUAGCACCAACGUCCUCAACCUCCAAUGCAUCCCACCACAUGAUGAUGCCUGAAGAGCCUUUGUUUUUUG: the “polymerase ribozyme fitness (log ratio)” value was -3.57.
On to GACUAAUCUGCCCUCAGAGCUCGAGAACAUCUUCGGAUGCAGAGGAGGCAGGCAUCGGUGGCGCGAUAGCGGCAACGUCCUAAACCUCCAAUGCAUCCCACCACAUGAUGAUGACUGAAGAGCCUUGGUUUUUUG, for which the “polymerase ribozyme fitness (log ratio)” value is -3.49.
For GACCAAUCUGCCCUCAGAGCUCGAGAACAUCUUCGGAUGCAGAGGAGGCAGGCUUCGGUCGCGCGAUAGCGCCAACGUCCUCAAUCUCCAAUGCAACCCACCACACGAUGAUGCCUGAUGAGCCUUGGUUUUUUG, the “polymerase ribozyme fitness (log ratio)” value is -4.09.
GACCAAUCUGCCCUCAGAGAUCGAGAACAUCUUCGGAUGCAGAGAAGGCAGGCUUCGGUGGCGCGAUAGCGCCAACGUCCUCAACCUCCAAUGCAUCCCACCACAUGAUGAUGCCUGAAGAGCCUUGGUUUUUUG: the “polymerase ribozyme fitness (log ratio)” value was -2.28.
For the variant GACCAAUCUGCCCUCAGAGCUCGAGAACAUCUUCGGAUGCAGAGGAGGCAGGCUUUGGUGGCGCGAUAGCGCAAACGUCCUCAAACUCCAGUGCAUCCCACCACAUGAUGAUGCCUGAAGAGCCUUGGUUUUUUG, the “polymerase ribozyme fitness (log ratio)” value is -5.09.
For GACCAAUCUGCCCUCAGAGCUCGAGAACAUCUUCGGAUGCAGAGGAGGCAGGCUUCGGUGGCGCGAUAGCACCAACGUCCUCAACCUCCAAUGCAUCCCAACACAUGAUGAUGCCUGAAGAGCCUUGGUUUUUUG the value was -2.55; for GACCAAUCUGCCCUCAGAGCUCGUGAACAUCUUCGGAUGCAGAGGAGGCAGGCUUCGGUGGCGCGAUAGCGCCAACGUCCUCUACCUCCAAUGCAUCCCACCACAUGAUGAUGCCUGAAGAGCCUUGGUUUUUUG, -7.24.
The value for GACCAAUCUGCCCUCAGAGCUCGAGAACAUCUUCGGAUGGAGAGGAGGCAGGCUUCGGUGGCGCGAUAGCGCCAACGUCCUCAACCUCCAAUGAAUCCCACCACAUGAUCAUGUCUGGAGAGCCUUGGUUUUUUG was -6.35; that for GACCAAUCUGCCCUCAGAGCUCGAGAACAUCUUAGGAUGCAGAGGAGGCAGGCUUCGGUCGCGCGAUAGCGCCAACGUCCUCAACCUCCAAUGCAUCCCACCACAUGAUGAGGCCUGAAGAGCCUUGGUAUUAUG was -4.54.
The value for GACCAAUCUGCCAUCAGAGCUCGAGAACAUCUUCGGAUGCUGAGGAGGCAGGCUUCUGUGGCGCGAUAGCGCCAACGUCCUCAACCUCCAAUGCAUCCCACCACAUGAUGAUGCCUGAAGAGCCUUGGUUUUUUG was -3.67; that for GACCAAUCUGCCCUCAGAGCUCGAGAACAUCUUCGGAUGCAGAGGAGGCAGGCUUGGGUGGCGCGAUAGCGCCAACGUCCUCAACCUCCAAUGCAUCCCACCACAUGAUGACGCCUGAAGAGCCUUGGUUUUUUG was 1.26.
Take GACCGAUCUGCCCUCAGAGCUCGAGAACAUCUUCGGAUGCAGACGAGGCAGGCUUCGGUGGCGCGAUAGCGCCUACGUCCUCAACCUCCAAUGCAGCCCACCACAUGAUGAUGCCUGAAGAGCCUUGGUUUUUUG: the “polymerase ribozyme fitness (log ratio)” value was -2.57.
On to GACCAUUCUGUCCUCAGAGCUCGAGAACAUCUUCGGAUGCAGAGGAGGCAGGCUUCGGUGGCGCGAUAGCGCCAACGUCCUCAACCUCCAAUGCAUCCCACCACAUGAUGAUGCCUGAAGAGCGUUGGUUUUUUG, for which the “polymerase ribozyme fitness (log ratio)” value was determined as 1.11.
On to GAACAAUCUGCCCUAAGAGCUCGAGAACAUCUUCGGAUGCAGAGGAGGCAGGCUUCGGUGGCGCGAUAGCGCCAACGUCCUCAACCUCCAAUGCAUCCCACCACAUGAUGAUGCCUGAAGAGCCUUGGUUUUUUG, for which the “polymerase ribozyme fitness (log ratio)” value was -3.67.
With GACCAAUCUGCCCUCAGAGCUCGAGAACAUCUUCGGAUGCAGAGGAGGCAGCCUUCGGUGGCGCGAUAGCGCCAACGUCCUCAACCUCCAAUGCAUCCCACCACAUGAUGAUGCCUGAAUAGCCUUGGUUUUUUG, the “polymerase ribozyme fitness (log ratio)” value is -0.715.
For GACCAAUCUGCCCUCAGAGCUCGAGACCAUCUUCGGAUGCAGAGGAGGCAGGCUUCGGUGGCGCGAUAGCGCCAACGUCCUCAACCUCCAAUGCAUCCCACCACAUGAUGAUGCCUGAAGAGACUUGGUUUUUUG the value was -3.14; for GACCAAUCUGCCCUCAGAGCUCGAGAACAUCUUCGGGUGCAGAGGAGGCUGGCUUCGGUGGCGCGAUAGCGCCAACGUCCUCAACCUCCAAUGUAUCCCACCAUAUGAUGAUGCCUCAAGAGCCUUGGUUUUUUG, -5.89; for GACCAAUCUGCCCUCAGAGCUCGAGAACAUCUUAGGAUGCAGAGGAGGCAGGCUUCGGUGGCGCGAUAGCGCCAACGUCCUCAACCUCCAAUGCAUCCCACCACAUGACGAUGCCUGAAGAGCCUUGGUUUUUUG, -6.24.
For GACCAAUCUGCCCUCAGAGCUCGAGAACAUCUUCGGAUGCAGAUGAGGCAGGCUUCGGUGGCGCGAUAGCGCCAACGUCCUCAACCUCCAAUGCAUCCCACCACAUGAUGAUGCCUGAAGAGCAUUGGUUUUUUG the value was 1.15; for GACCAAUCUGCCCUCAGAGCUCGAGAACAUCCUCGGAUGCAGAGGAGGCAGGCUUCGGUGGCGCGAUAGCGCCAACGUCCUCAACCUCCAAUGCAUCCCACCACAUGAUGAAGCCUGAAGAGCCUUGGUUUUUUG, 1.49; for GACCAAUCUGCCCUCAGAGCUCGAGAACAUCUUCGGUUGCAGAGGAGGCAGGCUUCGGUGGCGCGAUAGCUCCAACGUCCUCAACCUCCAAUGCAUCCCACCACAUGAUGAUGCCUGAAGAACCUUGGUUUUUUG, -1.17.

Source of the values: the RNAGym collection of RNA variant scans (doi:10.1073/pnas.2313332121).
